Tests used:
[1] = test system: N[C@@H](CC(=O)O)C(=O)O; experiment: cells, lysate or membranes named; details: 37.0 °C
[2] = test system: O=C(O)CNCP(=O)(O)O; experiment: cells, lysate or membranes named; details: 37.0 °C
[3] = test system: O=C(O)CNCP(=O)(O)O; experiment: Substrate saturation kinetic analysis of purified GLYAT; format: biochemical; details: other: SEQ ID NO:7, pH 7.0, non-varied substrate saturating, 37.0 °C
Method: (§1) E. coli cultures in LB or 2×YT were grown overnight at 37° C. to saturation. The cells were used as a 2% inoculum into fresh media. When OD reached 0.6, IPTG was added to 0.2 mM and growth was continued for at least 6 hours. Cells were harvested by centrifugation and stored at −80° C. Cells were lysed with BPER (Pierce) containing 1 mM dithiothreitol, 0.2 mg/ml lysozyme, 2 mg/ml protease inhibitor cocktail (Sigma bacterial cell cocktail, P8465) and endonuclease. Lysate supernatants were passed through a column of NHS-activated Agarose (Thermo, #26197) derivatized with coenzyme A. Columns were washed with 25 mM Hepes, pH 7, containing progressively higher concentrations of KCl, then eluted with 25 mM Hepes, 100 mM KCl, 10% ethylene glycol and 1 mM acetyl CoA. Purity as evaluated by polyacrylamide gel electrophoresis was deemed consistently high enough to be assumed to be 100%. Protein concentration was determined with the Bradford assay using a large-scale lot of produced GLYAT protein as standard.
Kinetic parameters for various substrates were obtained using a range of seven substrate concentrations plus a blank containing none of the varied substrate. The non-varied substrate was present at a saturating concentration. Six-microliter aliquots of 50-fold concentrated stock solutions of the varied substrate were placed in a 96-well assay plate (Greiner BioOne UV-Star). […] Absorbance was monitored for one minute with a Spectramax 384 Plus plate reader (Molecular Devices). If the amino acid present at position 30 (29 if alanine is absent at position 2) was cysteine, absorbance was monitored at 235 nm, which directly detects cleavage of the sulfoester bond of acetyl CoA. If the amino acid present at position 30 (29 if alanine is absent at position 2) was isoleucine, 0.5 mM 5,5′-dithiobis-(2-nitrobenzoic acid), which reacts with the coenzyme A thiol generated in the enzyme catalyzed reaction, was included in the reaction mix and absorbance was monitored at 412 nm. […]

[4] = test system: O=C(O)CNCP(=O)(O)O; experiment: as above; format: biochemical; details: other: SEQ ID NO:26, pH 7.0, non-varied substrate saturating, 37.0 °C
Method: as §1
Kinetic parameters for various substrates were obtained using a range of seven substrate concentrations plus a blank containing none of the varied substrate. The non-varied substrate was present at a saturating concentration. Six-microliter aliquots of 50-fold concentrated stock solutions of the varied substrate were placed in a 96-well assay plate (Greiner BioOne UV-Star). Reactions were started with the addition of 294 ul of 25 mM Hepes, pH 7.0, 100 mM KCL, 10% ethylene glycol, the non-varied substrate and 10 to 200 nM enzyme. Absorbance was monitored for one minute with a Spectramax 384 Plus plate reader (Molecular Devices). If the amino acid present at position 30 (29 if alanine is absent at position 2) was cysteine, absorbance was monitored at 235 nm, which directly detects cleavage of the sulfoester bond of acetyl CoA. If the amino acid present at position 30 (29 if alanine is absent at position 2) was isoleucine, 0.5 mM 5,5′-dithiobis-(2-nitrobenzoic acid), which reacts with the coenzyme A thiol generated in the enzyme catalyzed reaction, was included in the reaction mix and absorbance was monitored at 412 nm. Initial rates were processed by the Softmax software to obtain kinetic parameters, using the double-reciprocal transformation.
The sequences with the new substitutions were derived through a combination of saturation mutagenesis of an already fit protein (SEQ ID NO:26) and an effective screening cascade as a means of identifying the improved genes (Examples 1-2). Regions in which novel changes are concentrated include helix H2a (positions 23 and 25-29) and the hairpin formed by strands B6 and B7 (positions 124-144). These two structures are components of the amino substrate binding site. Helix H3, the backbone to which the central beta sheet is anchored, is a region where 24% of the novel substitutions (17 out of 71) disclosed in Table 4 are concentrated into 11% of the positions (16 out of 146). None of those are near enough to the active site to influence substrate specificity directly. In three cases, multiple novel substitutions were discovered immediately or nearly adjacent to conserved amino acids shown previously to contribute to the catalytic mechanism (Siehl D L et. al., J Biol Chem, 282:11446, 2007). The catalytic amino acids for which this is the case are R21, R111, H138 and the nearby positions with multiple substitutions are 23, 112 and 137. The diverse amino acids at these positions may influence the orientation of the neighboring catalytic amino acids so as to selectively optimize catalysis with the preferred substrate, glyphosate.

[5] = other: SEQ ID NO:2, pH 7.0, non-varied substrate saturating
[6] = other: SEQ ID NO:10, pH 7.0, non-varied substrate saturating
[7] = other: SEQ ID NO:9, pH 7.0, non-varied substrate saturating
[8] = other: SEQ ID NO:4, pH 7.0, non-varied substrate saturating
[9] = other: SEQ ID NO:8, pH 7.0, non-varied substrate saturating
[10] = other: SEQ ID NO:3, pH 7.0, non-varied substrate saturating
[11] = other: SEQ ID NO:1, pH 7.0, non-varied substrate saturating
[12] = other: SEQ ID NO:6, pH 7.0, non-varied substrate saturating
[13] = other: SEQ ID NO:5, pH 7.0, non-varied substrate saturating

## GLYAT (glyphosate-N-acetyltransferase), parent, SEQ ID NO:2 (Bacillus licheniformis DSM 13 = ATCC 14580; A28V/D131E/E119K/E63D/E65Q/E67Q/E68K/E83D/E96Q/G37R/I132T/I135V/I15L/I2L/K101R/K144R/K58Q/L105M/L97I/R18K/T89S/V114A/Y130F/Y45F)
[1]; [5]
  Km: 47600 µM
  kcat: 0.887 s⁻¹
  kcat/Km: 18.7 M⁻¹ s⁻¹
[2]; [5]
  Km: 1380 µM
  kcat: 4.52 s⁻¹
  kcat/Km: 3270 M⁻¹ s⁻¹

## GLYAT variant SEQ ID NO:10 (derived from SEQ ID NO:1 and 2) (Bacillus licheniformis DSM 13 = ATCC 14580; A28V/D131E/E14D/E65Q/E67K/E68K/G37R/G38S/H61R/I132T/I135A/I15L/I19V/I53V/I91V/K101R/K144R/K58Q/L105M/L106I/L26I/L97I/M75V/R47G/R92K/T89S/V114A/Y130F/Y45F)
[1]; [6]
  Km: 89300 µM
  kcat: 2.48 s⁻¹
  kcat/Km: 28.2 M⁻¹ s⁻¹
[2]; [6]
  Km: 370 µM
  kcat: 11.6 s⁻¹
  kcat/Km: 31680 M⁻¹ s⁻¹

## GLYAT variant SEQ ID NO:9 (derived from SEQ ID NO:1 and 2) (Bacillus licheniformis DSM 13 = ATCC 14580; A28V/D131E/E119K/E14D/E65Q/E67K/E68K/G37R/G38S/I132T/I135A/I15L/I19V/I53V/I91V/K101R/K144R/K58Q/L105M/L26I/L97I/M75V/R47G/R92K/T89S/V114A/Y130F/Y45F)
[1]; [7]
  Km: 78700 µM
  kcat: 2.58 s⁻¹
  kcat/Km: 33.3 M⁻¹ s⁻¹
[2]; [7]
  Km: 250 µM
  kcat: 11.6 s⁻¹
  kcat/Km: 45430 M⁻¹ s⁻¹

## GLYAT variant SEQ ID NO:4 (derived from SEQ ID NO:1 and 2) (Bacillus licheniformis DSM 13 = ATCC 14580; D131E/E14D/E65Q/E67K/E68K/G37R/G38S/I132T/I135A/I15L/I19V/I53V/I91V/K101R/K144R/K58Q/L105M/L26I/L36T/L97I/M75V/R47G/R92K/T33S/T89S/V114A/Y130F/Y31F/Y45F)
[1]; [8]
  Km: 78300 µM
  kcat: 2.27 s⁻¹
  kcat/Km: 29 M⁻¹ s⁻¹
[2]; [8]
  Km: 1960 µM
  kcat: 26.88 s⁻¹
  kcat/Km: 13800 M⁻¹ s⁻¹

## GLYAT variant SEQ ID NO:8 (derived from SEQ ID NO:1 and 2) (Bacillus licheniformis DSM 13 = ATCC 14580; A28V/D131E/E119K/E14D/E65Q/E67K/E68K/E83D/G37R/G38S/I132T/I135A/I15L/I53V/I91V/K101R/K144R/K58Q/L105M/L106I/L26I/L36T/L97I/M75V/N8S/R47G/R92K/T89S/V114A/Y130F/Y45F)
[1]; [9]
  Km: 60000 µM
  kcat: 1.42 s⁻¹
  kcat/Km: 23.5 M⁻¹ s⁻¹
[2]; [9]
  Km: 390 µM
  kcat: 11.4 s⁻¹
  kcat/Km: 29650 M⁻¹ s⁻¹

## GLYAT variant SEQ ID NO:3 (derived from SEQ ID NO:1 and 2) (Bacillus licheniformis DSM 13 = ATCC 14580; A28V/D131E/E119K/E14D/E65Q/E67K/E68K/E83D/G37R/I132T/I135V/I15L/I19V/I2L/I53V/I91V/K101R/K144R/K58Q/L105M/L106I/L26I/L97I/M75V/R47G/R92K/T89S/V114A/Y130F/Y45F)
[1]; [10]
  Km: 35100 µM
  kcat: 2.72 s⁻¹
  kcat/Km: 77.8 M⁻¹ s⁻¹
[2]; [10]
  Km: 600 µM
  kcat: 11.6 s⁻¹
  kcat/Km: 19320 M⁻¹ s⁻¹

## GLYAT (glyphosate-N-acetyltransferase), parent, SEQ ID NO:1 (Bacillus licheniformis DSM 13 = ATCC 14580; E119R/E14D/E65Q/E67K/E68K/G37R/G38S/I132T/I135V/I15L/I19V/I53V/I91V/K101R/K144R/K58Q/L105M/L106I/L145I/L26I/L36T/L97I/M75V/R47G/R92K/T33S/T89S/V114A/Y130F/Y31F/Y45F)
[1]; [11]
  Km: 32900 µM
  kcat: 7.3 s⁻¹
  kcat/Km: 229 M⁻¹ s⁻¹
[2]; [11]
  Km: 1360 µM
  kcat: 24.23 s⁻¹
  kcat/Km: 18000 M⁻¹ s⁻¹

## GLYAT variant SEQ ID NO:7 (derived from SEQ ID NO:1 and 2) (Bacillus licheniformis DSM 13 = ATCC 14580; A28V/D131E/E119K/E14D/E65Q/E67K/E68K/E79G/E83D/G37R/G38S/G48A/I132L/I135A/I15L/I19V/I2L/I53V/I91V/K101R/K144R/K58Q/L105M/L106I/L26I/L36T/L97I/M75V/N109F/R47G/R92K/T33S/T89S/V114A/Y130F/Y31W/Y45F)
[3]
  Km: 800 µM
  kcat: 7.13 s⁻¹
  kcat/Km: 8870 M⁻¹ s⁻¹

## GLYAT variant SEQ ID NO:6 (derived from SEQ ID NO:1 and 2) (Bacillus licheniformis DSM 13 = ATCC 14580; A28V/D131E/E119K/E14D/E65Q/E67K/E68K/G37R/I132T/I135A/I15L/I19V/I53V/I91V/K101R/K144R/K58Q/L105M/L106I/L26I/L36T/L97I/M75A/R47G/R92K/T89S/V114A/V4I/Y130F/Y45F/Y46C)
[1]; [12]
  Km: 66800 µM
  kcat: 0.183 s⁻¹
  kcat/Km: 2.67 M⁻¹ s⁻¹
[2]; [12]
  Km: 2240 µM
  kcat: 11.2 s⁻¹
  kcat/Km: 5130 M⁻¹ s⁻¹

## GLYAT variant SEQ ID NO:5 (derived from SEQ ID NO:1 and 2) (Bacillus licheniformis DSM 13 = ATCC 14580; A28V/D131E/E14D/E65Q/E67K/E68K/G37R/I132T/I135A/I15L/I19V/I53V/I91V/K101R/K144R/K58Q/L105M/L106I/L26I/L97I/M75V/R47G/R92K/T89S/V114A/Y130F/Y45F)
[1]; [13]
  Km: 79100 µM
  kcat: 3.58 s⁻¹
  kcat/Km: 45.3 M⁻¹ s⁻¹
[2]; [13]
  Km: 230 µM
  kcat: 16.98 s⁻¹
  kcat/Km: 76470 M⁻¹ s⁻¹

## GLYAT (glyphosate-N-acetyltransferase), parent of saturation mutagenesis (already fit protein), SEQ ID NO:26 (derived from SEQ ID NO:1 and 2) (Bacillus licheniformis DSM 13 = ATCC 14580; A28V/C29I/D131E/E14D/E65Q/E67K/E68K/E83D/G37R/I132T/I135A/I15L/I19V/I53V/I91V/K101R/K144R/K58Q/L105M/L26I/L97I/M75V/R47G/R92K/T89S/V114A/Y130F/Y45F)
[4]
  Km: 220 µM
  kcat: 9.33 s⁻¹
  kcat/Km: 41750 M⁻¹ s⁻¹
